Measurements published in CN117820471A (VAZYME MEDICAL CO LTD; HUNAN NOVAZYME MEDICAL TECH CO LTD, dated 2024).
Blank lines part the entries; values can stand above or below the binder they belong to.

Experiments:
GFAP-His重组蛋白 [1] = target: T1, GFAP-His重组蛋白 (Homo sapiens (Human), UniProt P14136 1-432); assay: fixed capture antibody in the sandwich ELISA that detects GFAP-His
T1 construct: Recombinant GFAP expressed in 293F cells; also called GFAP-His蛋白; Glial fibrillary acidic protein

GFAP-His重组蛋白 [2] = target: T1, GFAP-His重组蛋白; assay: chemiluminescence sandwich assay on GFAP-His (Rabbit anti-GFAP mAb on magnetic beads, test antibody labelled with acridinium ester)

T1 sequence (P14136 other isoform, or with tags, fused parts or gaps limits assumed): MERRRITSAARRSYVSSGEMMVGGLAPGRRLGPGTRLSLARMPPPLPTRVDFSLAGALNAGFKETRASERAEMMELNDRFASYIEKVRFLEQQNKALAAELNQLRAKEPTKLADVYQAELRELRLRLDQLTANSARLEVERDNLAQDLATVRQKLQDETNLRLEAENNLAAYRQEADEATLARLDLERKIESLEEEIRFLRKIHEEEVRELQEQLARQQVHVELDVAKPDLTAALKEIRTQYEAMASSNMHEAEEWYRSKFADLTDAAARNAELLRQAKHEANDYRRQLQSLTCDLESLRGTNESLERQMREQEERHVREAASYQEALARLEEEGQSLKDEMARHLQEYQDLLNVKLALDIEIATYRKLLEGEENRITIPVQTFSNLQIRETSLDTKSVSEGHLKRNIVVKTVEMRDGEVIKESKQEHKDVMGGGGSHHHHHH

binding result (GFAP-His重组蛋白 [1]): binds
B1: Rabbit anti-GFAP mAb (antibody, V domains shown)
VH: QSLEESGGRLVTPGGSLTLTCTVSGIDLTTYTMTWVRQAPGKGLEWIGIISGSGTTYYASWAKGRFTISKTSTTVDLKITSPTTEDTATYFCARDLYGSSDIYNIWGPGTLVTVST
VL: DIVMTQTPASVSAAVGGTVTINCQASESIRNYLSWYQQKPGQPPKLLIFDASTLASGVSSRFKGSGSGTEFTLTISDLECADAATYYCQTYYGVSGFGNAFGGGTEVVVK
notes: Rabbit monoclonal antibody developed earlier, used as the fixed capture antibody (coated on the plate or on magnetic beads) in the sandwich assays; also called 包被抗体; 与之配对的抗体

binding result (GFAP-His重组蛋白 [2]): binds
B2: Anti-GFAP-rRmab-1 (antibody, V domains shown)
VH: QSLEESGGRLVTPGTPLTLTCTSSGFSLSSYYIQWVRQAPGKGLEWIGIIYASGSTYYASWAKGRFTISKTSATVDLKITSPTQEDTATYFCARNDYDSNLIMSIWGPGTLVTVSS
VL: AYDMTQTPASMEVAVGGTVTINCQASQNIGSSLAWYQQKPGQRPKLLIYRASTLASGVPSRFSGSGSGTEFTLTISGLQCDDAATYYCQQHFSIGAVQNVFGGGTEVVVR
notes: the rabbit constant regions are not; It was labelled with acridinium ester in the chemiluminescence sandwich assay; also called GFAP特异性抗体; 优选抗体
